Laboratory results from paper PMC10397247.

Assays:
[1] = target: T1, 4H470-bN; experiment: two-hybrid library CCNG1;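 note: natural log of median RNA to DNA barcode read ratio; higher means stronger binding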
T1 chain: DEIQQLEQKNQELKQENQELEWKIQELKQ

[2] = target: T2, 4H3961-bN; experiment: two-hybrid library CCNG1; details: mean of both orientations;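 note: natural log of median RNA to DNA barcode read ratio; higher means stronger binding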
T2 chain: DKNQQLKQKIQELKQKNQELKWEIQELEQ

[3] = target: T3, 4H4001-bN; experiment: two-hybrid library CCNG1;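 note: natural log of median RNA to DNA barcode read ratio; higher means stronger binding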
T3 chain: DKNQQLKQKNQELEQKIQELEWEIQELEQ

[4] = target: T4, 4H2702-bH; experiment: two-hybrid library CCNG1;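 note: natural log of median RNA to DNA barcode read ratio; higher means stronger binding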
T4 chain: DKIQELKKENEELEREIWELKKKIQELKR

[5] = target: T5, 4H754-bH; experiment: two-hybrid library CCNG1;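 note: natural log of median RNA to DNA barcode read ratio; higher means stronger binding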
T5 chain: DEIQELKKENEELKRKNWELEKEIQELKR

[6] = target: T6, 4H968-bH; experiment: two-hybrid library CCNG1;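 note: natural log of median RNA to DNA barcode read ratio; higher means stronger binding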
T6 chain: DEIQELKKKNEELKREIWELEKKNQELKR

[7] = target: T7, 4H3010-bH; experiment: two-hybrid library CCNG1
T7 chain: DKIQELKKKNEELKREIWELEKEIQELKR

[8] = target: T8, 4H918-bH; experiment: two-hybrid library CCNG1
T8 chain: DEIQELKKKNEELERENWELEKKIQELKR

[9] = target: T9, 4H3112-bH; experiment: two-hybrid library CCNG1
T9 chain: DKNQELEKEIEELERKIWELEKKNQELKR

[10] = target: T10, 4H953-bH; experiment: two-hybrid library CCNG1
T10 chain: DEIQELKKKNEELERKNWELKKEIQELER

[11] = target: T11, 4H855-bH; experiment: two-hybrid library CCNG1
T11 chain: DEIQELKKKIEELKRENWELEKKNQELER

[12] = target: T12, 4H2673-bH; experiment: two-hybrid library CCNG1
T12 chain: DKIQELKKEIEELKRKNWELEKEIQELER

[13] = target: T13, 4H4073-bH; experiment: two-hybrid library CCNG1
T13 chain: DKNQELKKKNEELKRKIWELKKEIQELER

[14] = target: T14, 4H457-bH; experiment: two-hybrid library CCNG1
T14 chain: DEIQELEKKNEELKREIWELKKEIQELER

[15] = target: T15, 4H346-bH; experiment: two-hybrid library CCNG1
T15 chain: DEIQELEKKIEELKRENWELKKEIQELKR

[16] = target: T16, 4H3926-bH; experiment: two-hybrid library CCNG1
T16 chain: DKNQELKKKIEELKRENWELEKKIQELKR

[17] = target: T17, 4H797-bH; experiment: two-hybrid library CCNG1
T17 chain: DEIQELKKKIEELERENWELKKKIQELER

[18] = target: T18, 4H683-bH; experiment: two-hybrid library CCNG1
T18 chain: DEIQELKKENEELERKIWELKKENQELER

[19] = target: T19, 4H3427-bH; experiment: two-hybrid library CCNG1
T19 chain: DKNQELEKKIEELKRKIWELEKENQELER

[20] = target: T20, 4H575-bH; experiment: two-hybrid library CCNG1
T20 chain: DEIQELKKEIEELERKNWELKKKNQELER

[21] = target: T21, 4H780-bH; experiment: two-hybrid library CCNG1
T21 chain: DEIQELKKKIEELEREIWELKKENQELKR

[22] = target: T22, 4H56-bA; experiment: two-hybrid library CCNG1
T22 chain: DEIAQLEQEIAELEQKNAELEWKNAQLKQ

[23] = target: T23, 4H3133-AA; experiment: two-hybrid library CCmax; details: mean of both orientations
T23 chain: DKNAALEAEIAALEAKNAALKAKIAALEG

[24] = target: T24, 4H340-AA; experiment: two-hybrid library CCmax; details: mean of both orientations
T24 chain: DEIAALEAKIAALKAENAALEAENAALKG

[25] = target: T25, 4H3631-AA; experiment: two-hybrid library CCmax; details: mean of both orientations
T25 chain: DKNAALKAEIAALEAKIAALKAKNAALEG

[26] = target: T26, 4H2198-AA; experiment: two-hybrid library CCmax; details: mean of both orientations
T26 chain: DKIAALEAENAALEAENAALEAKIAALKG

[27] = target: T27, 4H3697-AA; experiment: two-hybrid library CCmax; details: mean of both orientations
T27 chain: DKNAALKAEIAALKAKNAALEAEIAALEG

[28] = target: T28, 4H3162-AA; experiment: two-hybrid library CCmax; details: mean of both orientations
T28 chain: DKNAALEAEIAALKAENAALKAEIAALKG

[29] = target: T29, 4H697-AA; experiment: two-hybrid library CCmax; details: mean of both orientations
T29 chain: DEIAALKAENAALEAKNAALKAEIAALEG

[30] = target: T30, 4H3378-AA; experiment: two-hybrid library CCmax; details: mean of both orientations
T30 chain: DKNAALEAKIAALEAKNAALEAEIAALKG

[31] = target: T31, 4H982-AA; experiment: two-hybrid library CCmax; details: mean of both orientations
T31 chain: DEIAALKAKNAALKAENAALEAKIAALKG

[32] = target: T32, 4H3413-AA; experiment: two-hybrid library CCmax; details: mean of both orientations
T32 chain: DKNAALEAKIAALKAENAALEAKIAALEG

[33] = target: T33, 4H3606-AA; experiment: two-hybrid library CCmax; details: mean of both orientations
T33 chain: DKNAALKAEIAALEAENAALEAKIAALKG

[34] = target: T34, 4H1874-AA; experiment: two-hybrid library CCmax; details: mean of both orientations
T34 chain: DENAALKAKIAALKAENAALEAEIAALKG

[35] = target: T35, 4H1845-AA; experiment: two-hybrid library CCmax; details: mean of both orientations
T35 chain: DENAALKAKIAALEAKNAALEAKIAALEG

[36] = target: T36, 4H2648-AA; experiment: two-hybrid library CCmax; details: mean of both orientations
T36 chain: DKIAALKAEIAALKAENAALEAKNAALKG

[37] = target: T37, 4H2620-AA; experiment: two-hybrid library CCmax; details: mean of both orientations
T37 chain: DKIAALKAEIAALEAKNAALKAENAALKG

[38] = target: T38, 4H2907-AA; experiment: two-hybrid library CCmax; details: mean of both orientations
T38 chain: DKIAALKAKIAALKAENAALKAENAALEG

[39] = target: T39, 4H384-AA; experiment: two-hybrid library CCmax; details: mean of both orientations
T39 chain: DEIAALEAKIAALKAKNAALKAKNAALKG

[40] = target: T40, 4H1629-AA; experiment: two-hybrid library CCmax
T40 chain: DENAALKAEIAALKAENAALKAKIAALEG

[41] = target: T41, 4H3718-AA; experiment: two-hybrid library CCmax; details: mean of both orientations
T41 chain: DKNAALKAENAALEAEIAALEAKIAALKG

[42] = target: T42, 4H3588-AA; experiment: two-hybrid library CCmax; details: mean of both orientations
T42 chain: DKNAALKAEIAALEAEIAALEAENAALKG

[43] = target: T43, 4H32-AA; experiment: two-hybrid library CCmax; details: mean of both orientations
T43 chain: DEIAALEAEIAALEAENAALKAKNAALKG

[44] = target: T44, 4H3056-AA; experiment: two-hybrid library CCmax; details: mean of both orientations
T44 chain: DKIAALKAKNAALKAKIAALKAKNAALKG

[45] = target: T45, 4H2553-AA; experiment: two-hybrid library CCmax; details: mean of both orientations
T45 chain: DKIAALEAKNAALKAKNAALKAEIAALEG

[46] = target: T46, 4H3865-AA; experiment: two-hybrid library CCmax; details: mean of both orientations
T46 chain: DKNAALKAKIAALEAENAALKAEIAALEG

[47] = target: T47, 4H2611-AA; experiment: two-hybrid library CCmax; details: mean of both orientations
T47 chain: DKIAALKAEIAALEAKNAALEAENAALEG

Binder: DKNQQLKQKIQELKQKNQELKWEIQELEQ [4H3961-bN]
- interaction score [1]: -1.5
- interaction score [2]: -1.14
- interaction score [3]: -0.763

Binder: DKIQELKKEIEELKRKNWELEKEIQELER [4H2673-bH]
- interaction score [4]: -0.671
- interaction score [5]: -1.99
- interaction score [6]: -0.933
- interaction score [7]: 2.11
- interaction score [8]: -0.87
- interaction score [9]: -0.64
- interaction score [10]: -1.62
- interaction score [11]: -0.854
- interaction score [12]: -0.111
- interaction score [13]: 0.575
- interaction score [14]: -0.154
- interaction score [15]: -0.803
- interaction score [16]: 0.192
- interaction score [17]: -0.55
- interaction score [18]: 0.639
- interaction score [19]: -0.449
- interaction score [20]: -0.762
- interaction score [21]: -0.56
- interaction score [22]: 0.863

Binder: DENAALKAEIAALKAENAALKAKIAALEG [4H1629-AA]
- interaction score [23]: -1
- interaction score [24]: -1.67
- interaction score [25]: -1.7
- interaction score [26]: -1.33
- interaction score [27]: -0.847
- interaction score [28]: -0.752
- interaction score [29]: -1.58
- interaction score [30]: -1.39
- interaction score [31]: -1.55
- interaction score [32]: -0.212
- interaction score [33]: 0.462
- interaction score [34]: -0.00053
- interaction score [35]: -1.22
- interaction score [36]: -1.18
- interaction score [37]: -1.66
- interaction score [38]: -1.89
- interaction score [39]: -1.82
- interaction score [40]: 2.04
- interaction score [41]: -1.62
- interaction score [42]: -1.46
- interaction score [43]: -1.13
- interaction score [44]: -1.6
- interaction score [45]: -1.61
- interaction score [46]: -0.375
- interaction score [47]: -1.42
